By Kd is commonly meant the free concentration of one partner at which half of the binding sites on the other are occupied at equilibrium, for simple one-to-one binding.

This note sets out measurements from paper PMC5818060, “A CK1 FRET biosensor reveals that DDX3X is an essential activator of CK1ε” (Journal of Cell Science, 2018).

Ends that are not written are not given here. * marks the point of attachment. Biotin = O=C1N[C@H]2[C@H](CS[C@H]2CCCCC(=O)*)N1

Common to all, as to conditions: both partners purified
Data set [1] concerns the target T1, His-DDX3X^414-582 (human, UniProt O00571 414-582).
T1 construct: DEAD box RNA helicase 3 X-linked (DDX3X), human, UniProt O00571, C-terminal helicase domain, aa 414-582; Named without the His tag in the BLItz methods; also called C-terminal helicase domain of DDX3X; source: dialyzed in 50 mM HEPES pH 8 for ELISA and FTS
Kind of data set: ELISA; His-DDX3X^414-582 coated on MaxiSorp plates (0.01 µg/µl, 100 mM sodium carbonate pH 9.6, 4°C overnight); biotinylated peptides 1 µg/well, 2.5 h at room temperature; detection with HRP-streptavidin.

For data set [2], the target named is T2, Flag-DDX3X (human, UniProt O00571 1-662).
T2 construct: DEAD box RNA helicase 3 X-linked (DDX3X), human, UniProt O00571, full length; pCS-based vector with N-terminal Flag tag; purification as in Cruciat et al., 2013; also called wild-type DDX3X; DDX3X WT; source: HEK293T, transfected, purified on Flag beads (high-salt wash, eluted with Flag peptide); not shown: Flag, N-terminal, kept
T2 sequence (O00571 whole entry): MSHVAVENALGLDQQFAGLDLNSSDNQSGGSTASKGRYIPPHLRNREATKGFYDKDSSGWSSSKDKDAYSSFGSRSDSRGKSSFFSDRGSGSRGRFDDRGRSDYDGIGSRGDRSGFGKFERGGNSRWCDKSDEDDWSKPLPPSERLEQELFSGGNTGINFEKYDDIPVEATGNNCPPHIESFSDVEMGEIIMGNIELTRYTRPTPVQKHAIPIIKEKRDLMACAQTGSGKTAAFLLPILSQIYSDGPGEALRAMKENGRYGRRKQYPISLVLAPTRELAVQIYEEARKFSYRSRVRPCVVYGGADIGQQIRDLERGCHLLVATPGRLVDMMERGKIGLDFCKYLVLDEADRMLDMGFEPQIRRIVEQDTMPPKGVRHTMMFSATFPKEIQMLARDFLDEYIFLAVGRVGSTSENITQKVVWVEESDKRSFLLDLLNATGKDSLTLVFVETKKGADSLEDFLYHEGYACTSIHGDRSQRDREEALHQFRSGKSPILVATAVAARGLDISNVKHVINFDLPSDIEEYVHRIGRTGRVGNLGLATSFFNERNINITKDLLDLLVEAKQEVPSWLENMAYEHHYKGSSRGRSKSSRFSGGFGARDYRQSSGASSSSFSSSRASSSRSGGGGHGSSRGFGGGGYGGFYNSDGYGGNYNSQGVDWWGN
The data set can be described thus: pull-down; purified Flag-DDX3X proteins, incubated with total RNA where indicated, subjected to bead-coupled HA-CK1ε; Western blot. On the technique in general: A western blot detects proteins with antibodies after separation by electrophoresis.

In data set [3] the target is T1, His-DDX3X^414-582. Kind of data set: fluorescence thermal shift (FTS) assay; 10 µM His-DDX3X^414-582, 20 µM peptide, 50 mM HEPES pH 8, 10x SYPRO-Orange; change of melting temperature.
For data set [4], the target named is T1, His-DDX3X^414-582. Kind of data set: fluorescence thermal shift (FTS) assay; FTS with varying concentrations of peptide; melting temperatures fitted to single site or simple cooperative ligand binding, preferred model chosen.

T1 sequence (O00571 414-582): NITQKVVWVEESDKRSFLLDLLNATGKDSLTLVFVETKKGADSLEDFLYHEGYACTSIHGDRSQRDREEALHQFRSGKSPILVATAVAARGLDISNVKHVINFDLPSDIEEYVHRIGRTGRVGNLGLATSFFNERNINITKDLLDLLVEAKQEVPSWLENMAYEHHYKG

B1: CK1ε-derived peptide ε-241 (peptide)
peptide: Biotin-SGSGCKGYPSEFSTYLNFC
modifications: cysteine pairing not given here
notes: four amino acid spacer between biotin and the peptide; casein kinase 1 epsilon (CK1ε), human, UniProt P49674; source: synthetic peptide (peptide library), pre-dissolved in DMSO; not shown: biotin, N-terminal, kept
On to B1, for which the binding result in data set [1] is listed as “binds”.

B2: HA-CK1ε (enzyme, human, UniProt P49674 1-416, looked up)
chain: MELRVGNKYRLGRKIGSGSFGDIYLGANIASGEEVAIKLECVKTKHPQLHIESKFYKMMQGGVGIPSIKWCGAEGDYNVMVMELLGPSLEDLFNFCSRKFSLKTVLLLADQMISRIEYIHSKNFIHRDVKPDNFLMGLGKKGNLVYIIDFGLAKKYRDARTHQHIPYRENKNLTGTARYASINTHLGIEQSRRDDLESLGYVLMYFNLGSLPWQGLKAATKRQKYERISEKKMSTPIEVLCKGYPSEFSTYLNFCRSLRFDDKPDYSYLRQLFRNLFHRQGFSYDYVFDWNMLKFGAARNPEDVDRERREHEREERMGQLRGSATRALPPGPPTGATANRLRSAAEPVASTPASRIQPAGNTSPRAISRVDRERKVSMRLHRGAPANVSSSDLTGRQEVSRIPASQTSVPFDHLGK
notes: casein kinase 1 epsilon (CK1ε), human, UniProt P49674; The methods name a pCS-based vector with N-terminal HA tag for human cell culture work; also called bead-coupled HA-CK1ε; casein kinase 1 epsilon; source: bead-coupled; not shown: HA, N-terminal, kept
Regarding B2, the binding result in data set [2] is recorded as “binds”.

B3: CK1ε-derived peptide ε-61 (peptide)
peptide: Biotin-SGSGGGVGIPSIKWCGAEG
notes: as for B1
Take B3: the binding result in data set [1] is “binds”.

B4: CK1δ-derived peptide δ-31 (peptide)
peptide: Biotin-SGSGAGEEVAIKLECVKTK
notes: four amino acid spacer between biotin and the peptide; casein kinase 1 delta (CK1δ), human, UniProt P48730; source: synthetic peptide (peptide library), pre-dissolved in DMSO; not shown: biotin, N-terminal, kept
In the case of B4, the binding result in data set [1] was “binds”.

B5: CK1δ-derived peptide δ-231 (peptide)
peptide: Biotin-SGSGKKMSTPIEVLCKGYP
notes: as for B4
With B5, in data set [1], the binding result was “binds”.

B6: CK1δ-derived peptide δ-141 (peptide)
peptide: Biotin-SGSGKGNLVYIIDFGLAKK
notes: as for B4
Consider B6, for which the binding result in data set [1] is given as “binds”.

B7: CK1ε-derived peptide ε-41 (peptide)
peptide: Biotin-SGSGCVKTKHPQLHIESKF
notes: as for B1
Take B7: the “increase of the melting temperature (Tm) of His-DDX3X^414-582” value (shortened to “increase of the melting temperature”) in data set [3] amounted to 6.3 °C.

B8: CK1δ-derived peptide δ-1 (peptide)
peptide: Biotin-SGSGMELRVGNRYRLGRKI
notes: four amino acid spacer between biotin and the peptide; casein kinase 1 delta (CK1δ), human, UniProt P48730; also called P1; source: synthetic peptide (peptide library), pre-dissolved in DMSO; not shown: biotin, N-terminal, kept
With B8, the Kd in data set [4] was found to be 15.6 µM. The “increase of the melting temperature” value in data set [3] worked out at 3.5 °C.

B9: CK1ε-derived peptide ε-1 (peptide)
peptide: Biotin-SGSGMELRVGNKYRLGRKI
notes: four amino acid spacer between biotin and the peptide; casein kinase 1 epsilon (CK1ε), human, UniProt P49674; differs from δ-1 only by K for R in the middle of the peptide; source: synthetic peptide (peptide library), pre-dissolved in DMSO; not shown: biotin, N-terminal, kept
With B9, the “increase of the melting temperature” value in data set [3] stood at 4.6 °C.

B10: CK1δ-derived peptide δ-91 (peptide)
peptide: Biotin-SGSGDLFNFCSRKFSLKTV
notes: as for B4
Take B10: the binding result in data set [1] is listed as “binds”.
